# Source: paper PMC4376263 (International Journal of Nanomedicine, 2015)
# “And” between values parts separate entries of the source, which are not always exact repeats. Equal entries are not always repeated. Where two headings read alike, the source gives them in different places.
# Experiments:
# [1] = tested on: murine colon adenocarcinoma cell line CT26; assay: In vitro cytotoxicity; type: cell-based; conditions: for fold more potent than CPT-11: ratio of IC50 values
# CT26 tumor xenograft = type: in vivo, BALB/c mice; conditions: for Body weight Final / Body weight Initial / IRT (inhibition ratio of the tumor) / Tumor weight Mean ± SD: n=8; for Histological section examination of tumor (H&E): day 14
# [2] = Critical micelle concentration; type: physicochemical; conditions: aqueous medium, coumarin-6 probe
# [3] = Particle size and zeta potential of micelles; type: physicochemical; conditions: 25°C, n=3
# Drug-loading measurement = type: physicochemical; conditions: weight of SN38 / weight of prodrug, HPLC with UV detector, triplicate
# [4] = Pharmacokinetic study after intravenous administration to SD rats; conditions: n=6; for Cmax of free SN38: free SN38 in plasma, intravenous 10 mg/kg (equivalent to SN38); for AUC0–24 of prodrug / Cmax of prodrug: prodrug form in plasma (equivalent to SN38); for AUC0–24 of prodrug / Cmax of prodrug / CL of prodrug / MRT0–24 of prodrug / T1/2 of prodrug: intravenous 10 mg/kg; for CL of prodrug / MRT0–24 of prodrug / T1/2 of prodrug: prodrug form in plasma
# [5] = In vitro drug release by dialysis; type: physicochemical; conditions: by 48 hours, 37°C, pH 6.5 PBS, pH 7.4 PBS, 25% liver homogenate, 50% plasma; P<0.05
# [6] = 2.5 mg/kg (equivalent to SN38) i.v. every 2 days for 2 weeks
# [7] = CT26 cells, 48 hours incubation, MTT, equivalent to SN38, mean ± SD, n=3
# [8] = 1.25 mg/kg (equivalent to SN38) i.v. every 2 days for 2 weeks
Compound,"IC50 ([1]; Mus musculus, CT26, 48 h)",Body weight Final (CT26 tumor xenograft; [6]),Body weight Initial (CT26 tumor xenograft; [6]),IRT (inhibition ratio of the tumor) (CT26 tumor xenograft; [6]),Tumor weight Mean ± SD (CT26 tumor xenograft; [6]),Histological section examination of tumor (H&E) (CT26 tumor xenograft; 2.5 mg/kg),"IC50 [1, 7]",fold more potent than CPT-11 ([1]; CT26 cells),Body weight Final (CT26 tumor xenograft; [8]),Body weight Initial (CT26 tumor xenograft; [8]),IRT (inhibition ratio of the tumor) (CT26 tumor xenograft; [8]),Tumor weight Mean ± SD (CT26 tumor xenograft; [8]),Histological section examination of tumor (H&E) (CT26 tumor xenograft; 1.25 mg/kg),CMC (critical micelle concentration) [2],mean particle size [3],mean zeta potential [3],drug loading (Drug-loading measurement),Cmax of free SN38 [4],AUC0–24 of prodrug [4],Cmax of prodrug [4],further results
"CCc1c2c(nc3ccc(OC(=O)N4CCC(N5CCCCC5)CC4)cc13)-c1cc3c(c(=O)n1C2)COC(=O)[C@]3(O)CC [CPT-11, irinotecan, reference compound]",46.7 µM,23.6 ± 1.67 g,19.8 ± 1.73 g,23.5%,2.51 ± 0.36 g,Partial tumor tissue necrosis,,,,,,,,,,,,,,,
"CCc1c2c(nc3ccc(O)cc13)-c1cc3c(c(=O)n1C2)COC(=O)[C@]3(O)CC [SN38, 7-Ethyl-10-hydroxycamptothecin, reference compound]",0.0204 ± 0.0018 µM,,,,,,,,,,,,,,,,,,,,
chitosan-(C10-OH)SN38 [CS-(10s)SN38],,22.7 ± 1.96 g,20.4 ± 2.11 g,"47.8 ^a, ^b %",1.71 ± 0.21 g,extensive tissue necrosis,3.5 µM,13.3 fold,24.6 ± 1.24 g,20.0 ± 1.73 g,27.7%,2.37 ± 0.19 g,Partial tumor tissue necrosis,15 µg/mL,128.0±1.8 nm,21.1±0.5 mV,16.5%±0.7%,"3,057.78±637.61 μg/L",89.84±8.01 ×10^3 μg⋅h/L,46.89±6.56 ×10^3 μg/L,CL of prodrug [4]: 1.83 ± 0.17 mL/min/kg; MRT0–24 of prodrug [4]: 4.90 ± 0.66 h; T1/2 of prodrug [4]: 5.40 ± 1.29 h
chitosan-(C20-OH)SN38 [CS-(20s)SN38],,21.5 ± 2.52 g,19.6 ± 1.57 g,"64.7% and 64.7 ^a, ^c, ^d %",1.15 ± 0.09 g,extensive tissue necrosis,1.8 µM,25.9 fold,24.1 ± 1.31 g,20.6 ± 1.31 g,31%,2.24 ± 0.27 g,Partial tumor tissue necrosis,12 µg/mL,122.4±1.1 nm,22.3±0.4 mV,17.4%±0.8%,"2,489.43±153.63 μg/L",133.07±11.10 ×10^3 μg⋅h/L,48.43±4.27 ×10^3 μg/L,drug release compared with CS-(10s)SN38 [5]: slower drug release; CL of prodrug [4]: 1.2 ± 0.17 mL/min/kg; MRT0–24 of prodrug [4]: 4.94 ± 1.58 h; T1/2 of prodrug [4]: 7.05 ± 2.04 h
